Data on 17 molecules can be found in patent US6930088B2, “Conformationally constrained backbone cyclized somatostatin analogs” (Peptor Ltd., priority 1998, dated 2005).

Like-named read-outs stand apart in the source and are kept apart here. *1 amine or outer side, *2 acyl side, *3 side chain or, on linkers, in order; H or OH if unused. Where a SMILES comes first, the peptide text is derived from it. Bridges are numbered along the chain shown (N, C = ends). Where no end group is shown, it is not given here. [ ]: non-standard residue; d: D form. N(2-aminoethyl)Phe = O=C([C@H](Cc1ccccc1)N(CCN[*:3])[*:1])[*:2]; N(CH2CH2CO)Gly = O=C(CN(CCC(=O)[*:3])[*:1])[*:2]; 2Nal = N[C@@H](Cc1ccc2ccccc2c1)C(=O)O; d2Nal = N[C@H](Cc1ccc2ccccc2c1)C(=O)O; Gly(S2) = not defined here; Phe(C1) = not defined here; Phe(C2) = not defined here; Phe(C3) = not defined here; Mpa = O=C(O)CCS

The subject of series [1] is somatostatin receptors (SSTR-1, 2, 3, 4 or 5). Description: Somatostatin receptor subtype selectivity of binding. Details: species or system human. The conditions noted are these: in words. Here is the method:
The somatostatin analogs were tested for their potency in inhibition of the binding of ^125I-Tyr^11-SRIF (based on the method described by Raynor et. al., Molecular Pharmacology, 1993, 43, 838-844) to membrane preparations expressing the transmembranal somatostatin receptors (SSTR-1, 2, 3, 4 or 5). The receptor preparations used for these tests were either from the cloned human receptors selectively and stably expressed in Chinese Hamster Ovary (CHO) cells or from cell lines naturally expressing the SSTRs. Typically, cell membranes were homogenated in Tris buffer in the presence of protease inhibitors and incubated for 30-40 minutes with ^125I-Tyr^11-SRIF with different concentrations of the tested sample. The binding reactions were filtered, the filters were washed and the bound radioactivity was counted in gamma counter. Non specific binding was defined as the radioactivity remaining bound in the presence of 1 μM unlabeled SRIF-14.
In order to validate positive signals of the binding tests, and to eliminate non-specific signals, samples of irrelevant peptides, such as GnRH, that were synthesized and handled using the same procedures, were tested in the same assays as negative control samples. These samples had no binding activity in any of the assays. Results are shown below in Tables 5 and 6 and FIG. 1.

A short description of series [2]: In vitro biostability in renal homogenate (HPLC). Particulars: kidney or brush border membranes. Here is the method:
The assay was based on HPLC determination of peptide degradation as a function of time in renal homogenate at 37° C.

The conditions of series [3]: cited from earlier work.
Series [4] is described as follows: Metabolic bio-stability against degradation by enzyme mixtures. The series is classed as in vitro ADME. The conditions noted are these: in words; renal homogenate, rat liver homogenate and human serum.
Series [5] addresses T1, cloned human somatostatin receptor 3 (human, UniProt P32745 1-418).
T1 construct: whole, on cells; Tested as cell membrane preparations; also called SSTR-3; SSTR3
In words: 125I-Tyr11-SRIF displacement, membranes, cloned human SST-R3. The source says:
(§1) The receptor preparations used for these tests were either from the cloned human receptors selectively and stably expressed in Chinese Hamster Ovary (CHO) cells or from cell lines naturally expressing the SSTRs. […] The binding reactions were filtered, the filters were washed and the bound radioactivity was counted in gamma counter.

Series [6] has as its target T2, cloned human somatostatin receptor 5 (human, UniProt P35346 1-364).
T2 construct: whole, on cells; Tested as cell membrane preparations; also called SSTR-5; SSTR5
Description: IC50 for SST-R5 (subtype numbers stand in r6).

Series [7] concerns the target T3, cloned human somatostatin receptor 1 (human, UniProt P30872 1-391).
T3 construct: whole, on cells; Tested as cell membrane preparations; also called SSTR-1; SSTR1
In words: inhibition of SRIF binding, cloned human SSTR-1; head says nM, values evidently molar.
Source text: as §1

Series [8] has as its target T4, cloned human somatostatin receptor 2 (human, UniProt P30874 1-369).
T4 construct: whole, on cells; Tested as cell membrane preparations; also called SSTR-2; SSTR2
Description: inhibition of SRIF binding, cloned human SSTR-2; head says nM, values evidently molar.
Source text: as §1

The target of series [9] is T1, cloned human somatostatin receptor 3. Description: inhibition of SRIF binding, cloned human SSTR-3; head says nM, values evidently molar.
Source text: as §1

Series [10] concerns the target T2, cloned human somatostatin receptor 5. In words: inhibition of SRIF binding, cloned human SSTR-5; head says nM, values evidently molar.
Source text: as §1

Series [11] has the same target. In words: 125I-Tyr11-SRIF displacement, membranes, cloned human SST-R5.
Series [12] has as its target T5, cloned human somatostatin receptor 4 (human, UniProt P31391 1-388).
T5 construct: whole, on cells; Tested as cell membrane preparations; also called SSTR-4; SSTR-R4
Description: 125I-Tyr11-SRIF displacement, cloned human SSTR-R4.

[13] abbreviates: IV, from Sandostatin overview, Sandoz 1992.
Where [14] appears, read: SC, from Sandostatin overview, Sandoz 1992.

T4 sequence (P30874 whole entry): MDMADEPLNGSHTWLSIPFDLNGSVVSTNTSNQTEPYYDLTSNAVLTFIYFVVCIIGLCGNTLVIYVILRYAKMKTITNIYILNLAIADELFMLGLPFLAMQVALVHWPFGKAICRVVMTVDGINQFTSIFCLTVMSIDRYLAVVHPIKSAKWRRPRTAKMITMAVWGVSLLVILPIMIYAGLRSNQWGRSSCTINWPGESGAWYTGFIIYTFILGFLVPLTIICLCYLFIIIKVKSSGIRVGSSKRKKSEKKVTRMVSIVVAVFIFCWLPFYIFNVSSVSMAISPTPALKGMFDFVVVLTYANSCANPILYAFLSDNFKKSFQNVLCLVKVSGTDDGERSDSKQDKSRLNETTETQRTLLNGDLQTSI
T1 sequence (P32745 whole entry): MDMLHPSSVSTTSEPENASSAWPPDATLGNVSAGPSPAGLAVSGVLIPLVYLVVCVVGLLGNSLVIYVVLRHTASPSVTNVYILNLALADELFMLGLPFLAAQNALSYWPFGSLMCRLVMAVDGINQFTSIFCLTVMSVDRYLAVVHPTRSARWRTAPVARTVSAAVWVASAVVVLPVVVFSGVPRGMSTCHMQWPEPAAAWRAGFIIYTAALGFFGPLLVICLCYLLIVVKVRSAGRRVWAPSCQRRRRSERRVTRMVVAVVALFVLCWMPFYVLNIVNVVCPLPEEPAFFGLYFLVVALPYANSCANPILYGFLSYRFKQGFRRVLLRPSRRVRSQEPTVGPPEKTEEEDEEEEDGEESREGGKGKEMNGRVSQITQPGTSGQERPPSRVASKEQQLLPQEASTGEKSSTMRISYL
T2 sequence (P35346 whole entry): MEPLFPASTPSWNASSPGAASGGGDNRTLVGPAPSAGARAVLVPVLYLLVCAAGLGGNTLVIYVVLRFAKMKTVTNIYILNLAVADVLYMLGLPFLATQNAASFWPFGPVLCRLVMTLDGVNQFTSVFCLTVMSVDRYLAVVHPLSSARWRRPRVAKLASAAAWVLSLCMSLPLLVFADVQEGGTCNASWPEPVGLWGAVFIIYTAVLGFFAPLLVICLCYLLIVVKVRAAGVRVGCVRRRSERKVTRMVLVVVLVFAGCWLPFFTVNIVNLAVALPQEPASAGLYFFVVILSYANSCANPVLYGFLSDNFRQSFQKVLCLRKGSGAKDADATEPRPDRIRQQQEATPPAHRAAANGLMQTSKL
T5 sequence (P31391 whole entry): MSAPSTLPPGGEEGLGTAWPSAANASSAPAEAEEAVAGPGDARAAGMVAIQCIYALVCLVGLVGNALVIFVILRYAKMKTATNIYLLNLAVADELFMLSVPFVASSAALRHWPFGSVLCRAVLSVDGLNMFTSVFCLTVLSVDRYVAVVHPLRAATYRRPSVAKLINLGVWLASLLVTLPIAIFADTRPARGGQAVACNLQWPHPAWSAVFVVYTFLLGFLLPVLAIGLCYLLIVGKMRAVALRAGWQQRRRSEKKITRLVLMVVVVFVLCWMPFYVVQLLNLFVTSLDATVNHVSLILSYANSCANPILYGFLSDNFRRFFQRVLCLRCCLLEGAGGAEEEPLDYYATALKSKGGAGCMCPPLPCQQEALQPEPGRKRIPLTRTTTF
T3 sequence (P30872 whole entry): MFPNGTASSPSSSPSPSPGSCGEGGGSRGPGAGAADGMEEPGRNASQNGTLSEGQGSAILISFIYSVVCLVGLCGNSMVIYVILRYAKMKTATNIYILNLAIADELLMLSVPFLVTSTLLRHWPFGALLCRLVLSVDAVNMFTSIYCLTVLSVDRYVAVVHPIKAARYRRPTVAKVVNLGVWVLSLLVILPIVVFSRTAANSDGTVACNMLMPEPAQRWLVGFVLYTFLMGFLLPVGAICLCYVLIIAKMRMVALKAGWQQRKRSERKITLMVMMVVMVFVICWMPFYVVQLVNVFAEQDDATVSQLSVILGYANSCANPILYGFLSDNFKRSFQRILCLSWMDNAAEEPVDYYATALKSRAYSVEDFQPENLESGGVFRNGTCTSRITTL

Turning to “Phe(N2)-Tyr-(D)2Nal-Lys-Val-Gly(C2)-Thr-X ([N(2-aminoethyl)Phe]Y[d2Nal]KV[N(CH2CH2CO)Gly]T; lactam 1-6; not fully specified; printed as Phe(N2)-Tyr-(D)2Nal-Lys-Val-Gly(C2)-Thr-X) [PTR 3209]”, the “somatostatin receptor subtype selectivity” value in series [1] was “selective for the type 1 receptor”.
Consider `C[C@@H](O)[C@@H]1NC(=O)[C@H](CCCCN)NC(=O)[C@@H](Cc2c[nH]c3ccccc23)NC(=O)[C@H](Cc2ccccc2)NC(=O)[C@@H](NC(=O)[C@H](N)Cc2ccccc2)CSSC[C@@H](C(=O)N[C@H](CO)[C@@H](C)O)NC1=O` [Octreotide], for which, in series [2], the fraction remaining at 1 h was found to be 100%, the amount remaining at 3 h came to 100% and the fraction remaining at 24 h was found to be 100%. Further, in [3] (setting [13]), the “Clearance” value was 17.6 mL/min/kg, the “T½β (min) circulating half life” value is 49 min and the “Vss (ml/kg) Volume of distribution” value was 602 mL/kg. For the same molecule, the circulation half-life in [3] (Octreotide) is 40 min. For the same molecule, in series [3] (setting [14]), the “Clearance” value was 17.1 mL/min/kg, the “F (%) Bioavailability” value is recorded as 103% and the “T½β (min) circulating half life” value is 40 min.
Regarding `NCCCC[C@@H]1NC(=O)[C@@H](Cc2c[nH]c3ccccc23)NC(=O)[C@H](Cc2ccc(O)cc2)NC(=O)[C@H](Cc2ccccc2)NCCNC(=O)CCN(CC(N)=O)C(=O)[C@H](Cc2ccc3ccccc3c2)NC(=O)[C@H](CO)NC1=O` [PTR 3201, Phe(N2)-Tyr-(D)Trp-Lys-Ser-2Nal-Gly(C2)-X] (H-[N(2-aminoethyl)Phe]Y[dW]KS[2Nal][N(CH2CH2CO)Gly]-NH2; lactam 1-7; N-terminus and C-terminus assumed), in series [4], the “metabolic bio-stability against degradation by enzymes” value is reported as “considerable metabolic bio-stability against degradation by enzymes”.
As for “Phe(N2)-Tyr-(D)Trp-Lys-Val-Val-Gly(C2)-X ([N(2-aminoethyl)Phe]Y[dW]KVV[N(CH2CH2CO)Gly]; lactam 1-7; not fully specified) [PTR 3185]”, the “somatostatin receptor subtype selectivity” value in series [1] is “selective for the type 5 somatostatin receptor”.
In the case of “Phe(N2)-Tyr-(D)Trp-Lys-Val-Gly(C2)-2Nal-X ([N(2-aminoethyl)Phe]Y[dW]KV[N(CH2CH2CO)Gly][2Nal]; lactam 1-6; not fully specified) [PTR 3183]”, in series [1], the “somatostatin receptor subtype selectivity” value is on record as “selective for the type 5 somatostatin receptor”.
`C[C@@H](O)[C@@H]1NC(=O)[C@H](CCCCN)NC(=O)[C@@H](Cc2c[nH]c3ccccc23)NC(=O)[C@H](Cc2ccccc2)NC(=O)[C@@H]2CSSC[C@H](NC1=O)C(=O)N([C@@H](Cc1ccccc1)C(N)=O)CCCNC(=O)CCCN[C@@H](Cc1ccccc1)C(=O)N2` [PTR 3205, Phe(C3)-Cys*-Phe-(D)Trp-Lys-Thr-Cys*-Phe(N3)-X]: the “metabolic bio-stability against degradation by enzymes” value in [4] is given as “considerable metabolic bio-stability against degradation by enzymes”.

B1: PTR 3171 (peptide)
peptide: FFF[dW][dK][Phe(C2)]
modifications: lactam N-6; reading uncertain
notes: Backbone-to-end cyclized hexapeptide
On to B1, for which, in series [5], the “percent inhibition of SRIF-14 binding at 10^-6M” value (“percent inhibition … at 10^-6M” below) came out at 87%, the “percent inhibition of SRIF-14 binding at 10^-7M” value (“percent inhibition … at 10^-7M” below) amounted to 40% and the “percent inhibition of SRIF-14 binding at 10^-8M” value (“percent inhibition … at 10^-8M” below) was determined as 12%.

B2: PTR 3207 (peptide)
peptide: [dF]CFW[dW]KTF[Gly(S2)]-NH2
modifications: disulfide 2-9; reading uncertain
notes: Backbone to side chain cyclized nonapeptide
On to B2, for which the IC50 in series [6] amounted to 4 nM; in series [7], 100 nM; in [8], 1 nM; in [9] it was 1 nM; in series [10] it was 10 nM.

B3: PTR 3219 (peptide)
peptide: FGFWWKTFG
modifications: (D)Phe at 1; Gly(S2) building units at 2 and 9 bridged to each other; (D)Trp at 5; C-terminal amide
In turn, B3 registered an IC50 in series [6] of 37 nM.

B4: PTR 3211 (peptide)
peptide: {mercaptoacetic acid}-FW[dW]KTF[Gly(S2)]-NH2
modifications: disulfide N-7; reading uncertain
notes: Cyclized between the SH moiety and the SH-type building unit
Molecule B4 gave an IC50 in series [6] of 1.3 nM.

B5: PTR 3113 (peptide)
peptide: [Phe(C1)]FF[dW]K[N(2-aminoethyl)Phe]
modifications: lactam 1-6; reading uncertain
notes: Backbone cyclized hexapeptide somatostatin analog
B5: in series [5], the “percent inhibition … at 10^-6M” value is 94%, the “percent inhibition … at 10^-7M” value was found to be 65% and the “percent inhibition … at 10^-8M” value was determined as 16%.

B6: PTR 3123 (peptide)
peptide: [Phe(C1)]FF[dW][dK][N(2-aminoethyl)Phe]
modifications: lactam 1-6; reading uncertain
notes: Backbone cyclized hexapeptide
Take B6: in [11], the percent inhibition of SRIF-14 binding at 10^-7M is 0% and the percent inhibition of SRIF-14 binding at 10^-8M came out at 0%. For the same molecule, in series [5], the “percent inhibition … at 10^-6M” value was 84%, the “percent inhibition … at 10^-7M” value was 41% and the “percent inhibition … at 10^-8M” value is 24%.

B7: PTR 3201 (peptide)
peptide: [N(2-aminoethyl)Phe]Y[dW]KS[2Nal][N(CH2CH2CO)Gly]
modifications: lactam 1-7; not fully specified
notes: Backbone cyclized heptapeptide
Turning to B7, the IC50 was found to be 100 nM in [8], 10 nM in series [9] and 1 nM in [10].

B8: PTR 3203 (peptide)
peptide: [N(2-aminoethyl)Phe]F[dW]KT[2Nal][N(CH2CH2CO)Gly]
modifications: lactam 1-7; not fully specified
notes: as for B7
As to B8, the results for the IC50 in series [8], in series [9] and in series [10] were 100 nM, 10 nM and 10 nM, respectively.

B9: PTR 3217 (peptide)
peptide: [Mpa]FW[dW]KTF[Gly(S2)]-NH2
modifications: bridge N-8; reading uncertain
Take B9: the IC50 in [6] was 4.1 nM.

B10: PTR 3205 (peptide)
peptide: [Phe(C3)]CF[dW]KTC[Phe(N3)]-NH2
modifications: lactam 1-8; disulfide 2-7; reading uncertain
notes: Bicyclic analog
In series [8], B10 returned an IC50 of 1 nM.

B11: PTR 3173 (peptide)
peptide: XFWWKTFG
modifications: GABA at 1 (written X); (D)Trp at 4; Gly(C3) building unit at 8 bridged by an amide to the N terminus (GABA); C-terminal amide
notes: Backbone-to-end cyclized octapeptide
In the case of B11, in series [12], the percent inhibition of SRIF-14 binding at 10^-6 M was found to be 5%, the percent inhibition of SRIF-14 binding at 10^-7M is 5%, the percent inhibition of SRIF-14 binding at 10^-8M stood at 0% and the percent inhibition of SRIF-14 binding at 10^-9 M was determined as 0%. In series [12], this molecule had a percent inhibition of SRIF-14 binding at 10^-10 M of 0% and a percent inhibition of SRIF-14 binding at 10^-11 M of 0%. Moreover, in series [8], the IC50 was determined as 1 nM. This molecule also came in with an IC50 in series [9] of 100 nM. The molecule further returned an IC50 in [10] of 1 nM.
